± gives the standard deviation of the averaged measurements.
Assay: total protein half-life in vivo (active degradation + dilution); higher = more stable protein
[1] = E. coli NCM3722 delta-clpP delta-lon delta-hslV, growth: N-lim chemostat, doubling time 6 h
[2] = E. coli NCM3722 delta-clpP, growth: N-lim chemostat, doubling time 6 h
[3] = E. coli NCM3722 delta-lon, growth: N-lim chemostat, doubling time 6 h
[4] = E. coli NCM3722 delta-smpB, growth: N-lim chemostat, doubling time 6 h
[5] = wild type E. coli NCM3722, growth: C-lim chemostat, doubling time 6 h
[6] = wild type E. coli NCM3722, growth: C-lim chemostat, doubling time 12 h
[7] = wild type E. coli NCM3722, growth: N-lim chemostat, doubling time 6 h
[8] = wild type E. coli NCM3722, growth: N-lim chemostat, doubling time 12 h
[9] = wild type E. coli NCM3722, growth: P-lim chemostat, doubling time 6 h
[10] = wild type E. coli NCM3722, growth: P-lim chemostat, doubling time 12 h
[11] = wild type E. coli NCM3722, growth: C-lim chemostat, doubling time 3 h
[12] = E. coli NCM3722 delta-hslV, growth: N-lim chemostat, doubling time 6 h

Sequence	total protein half-life in vivo [1] [h]	total protein half-life in vivo [2] [h]	total protein half-life in vivo [3] [h]	total protein half-life in vivo [4] [h]	total protein half-life in vivo [5] [h]	total protein half-life in vivo [6] [h]	total protein half-life in vivo [7] [h]	total protein half-life in vivo [8] [h]	total protein half-life in vivo [9] [h]	total protein half-life in vivo [10] [h]	total protein half-life in vivo [11] [h]	total protein half-life in vivo [12] [h]
MPSARLQQQFIRLWQCCEGKSQDTTLNELAALLSCSRRHMRTLLNTMQDRGWLTWEAEVGRGKRSRLTFLYTGLALQQQRAEDLLEQDRIDQLVQLVGDKATVRQMLVSHLGRSFRQGRHILRVLYYRPLRNLLPGSALRRSETHIARQIFSSLTRINEENGELEADIAHHWQQISPLHWRFFLRPGVHFHHGRELEMDDVIASLKRINTLPLYSHIADIVSPTPWTLDIHLTQPDRWLPLLLGQVPAMILPREWETLSNFASHPIGTGPYAVIRNSTNQLKIQAFDDFFGYRALIDEVNVWVLPEIADEPAGGLMLKGPQGEEKEIESRLEEGCYYLLFDSRTHRGANQQVRDWVSYVLSPTNLVYFAEEQYQQLWFPAYGLLPRWHHARTIKSEKPAGLESLTLTFYQDHSEHRVIAGIMQQILASHQVTLKIKEIDYDQWHTGEIESDIWLNSANFTLPLDFSVFAHLCEVPLLQHCIPIDWQADAARWRNGEMNLANWCQQLVASKAMVPLLHHWLIIQGQRSMRGLRMNTLGWFDFKSAWFAPPDP	6.14 ± 0.11	6.77 ± 0.29	5.83 ± 0.34	5.32 ± 0.33	5.64 ± 0.28	11.9 ± 2.8	5.67 ± 0.6	13.4 ± 0.32	5.35 ± 0.34	9.889 ± 0.087		
MPSTRYQKINAHHYRHIWVVGDIHGEYQLLQSRLHQLSFFPKIDLLISVGDNIDRGPESLDVLRLLNQPWFTSVKGNHEAMALEAFETGDGNMWLASGGDWFFDLNDSEQQEAIDLLLKFHHLPHIIEITNDNIKYAIAHADYPGSEYLFGKEIAESELLWPVDRVQKSLNGELQQINGADYFIFGHMMFDNIQTFANQIYIDTGSPNSGRLSFYKIK						> 16	4.06			> 16		
MPTKMRTTRNLLLMATLLGSALFARAAEKEMTIGAIYLDTQGYYAGVRQGVQDAAKDSSVQVQLIETNAQGDISKESTFVDTLVARNVDAIILSAVSENGSSRTVRRASEAGIPVICYNTCINQKGVDKYVSAYLVGDPLEFGKKLGNAAADYFIANKIDQPKIAVINCEAFEVCVQRRKGFEEVLKSRVPGAQIVANQEGTVLDKAISVGEKLIISTPDLNAIMGESGGATLGAVKAVRNQNQAGKIAVFGSDMTTEIAQELENNQVLKAVVDISGKKMGNAVFAQTLKVINKQADGEKVIQVPIDLYTKTEDGKQWLATHVDGLP			> 8	5.48 ± 2.3	6.18 ± 0.59	10.2 ± 0.31			> 8	13.19 ± 0.1	3.51 ± 0.069	
MPTQEAKAHHVGEWASLRNTSPEIAEAIFEVAGYDEKMAEKIWEEGSDEVLVKAFAKTDKDSLFWGEQTIERKNV [P0AB14]	5.53 ± 0.41		3.45 ± 0.75	2.46 ± 0.13	4.15 ± 0.58	5.68 ± 1	2.39 ± 0.054	3.85 ± 1.1	3.02 ± 0.39	5.43 ± 0.18	2.55 ± 0.13	2.63
MPVFALLALVAYSVSLALIVPGLLQKNGGWRRMAIISAVIALVCHAIALEARILPDGDSGQNLSLLNVGSLVSLMICTVMTIVASRNRGWLLLPIVYAFALINLALATFMPNEYITHLEATPGMLVHIGLSLFSYATLIIAALYALQLAWIDYQLKNKKLAFNQEMPPLMSIERKMFHITQIGVVLLTLTLCTGLFYMHNLFSMENIDKAVLSIVAWFVYIVLLWGHYHEGWRGRRVVWFNVAGAVILTLAYFGSRIVQQLIS						13.6	6.45			15.5		
MPVLHNRISNDALKAKMLAESEPRTTISFYKYFHIADPKATRDALYQLFTALNVFGRVYLAHEGINAQISVPASNVETFRAQLYAFDPALEGLRLNIALDDDGKSFWVLRMKVRDRIVADGIDDPHFDASNVGEYLQAAEVNAMLDDPDALFIDMRNHYEYEVGHFENALEIPADTFREQLPKAVEMMQAHKDKKIVMYCTGGIRCEKASAWMKHNGFNKVWHIEGGIIEYARKAREQGLPVRFIGKNFVFDERMGERISDEIIAHCHQCGAPCDSHTNCKNDGCHLLFIQCPVCAEKYKGCCSEICCEESALPPEEQRRRRAGRENGNKIFNKSRGRLNTTLCIPDPTE	5.01 ± 0.67	0.746 ± 0.024	0.483	0.56	0.308	0.65		0.808	0.402 ± 0.34	1.16 ± 1.1	0.343 ± 0.0081	0.396
MQAATVVINRRALRHNLQRLRELAPASKMVAVVKANAYGHGLLETARTLPDADAFGVARLEEALRLRAGGITKPVLLLEGFFDARDLPTISAQHFHTAVHNEEQLAALEEASLDEPVTVWMKLDTGMHRLGVRPEQAEAFYHRLTQCKNVRQPVNIVSHFARADEPKCGATEKQLAIFNTFCEGKPGQRSIAASGGILLWPQSHFDWVRPGIILYGVSPLEDRSTGADFGCQPVMSLTSSLIAVREHKAGEPVGYGGTWVSERDTRLGVVAMGYGDGYPRAAPSGTPVLVNGREVPIVGRVAMDMICVDLGPQAQDKAGDPVILWGEGLPVERIAEMTKVSAYELITRLTSRVAMKYVD [P0A6B4]	5.14 ± 0.16	4.27 ± 0.085	4.99 ± 0.29	4.58 ± 1.3	5.75 ± 0.44	11 ± 1.9	4.39 ± 0.14	7.99 ± 0.34	5.87 ± 0.2	11.53 ± 0.057	3.1 ± 0.046	5.12 ± 0.41
MQAIPMTLRGAEKLREELDFLKSVRRPEIIAAIAEAREHGDLKENAEYHAAREQQGFCEGRIKDIEAKLSNAQVIDVTKMPNNGRVIFGATVTVLNLDSDEEQTYRIVGDDEADFKQNLISVNSPIARGLIGKEEDDVVVIKTPGGEVEFEVIKVEYL [P0A6W5]	5.3 ± 0.11	4.38 ± 0.77	3.76 ± 0.18	2.44 ± 0.26	4.48 ± 0.2	6.41 ± 0.17	3.27 ± 0.066	4.46 ± 0.28	3.75 ± 0.55	6.8 ± 0.8	2.57 ± 0.24	3.21 ± 0.12
MQAYFDQLDRVRYEGSKSSNPLAFRHYNPDELVLGKRMEEHLRFAACYWHTFCWNGADMFGVGAFNRPWQQPGEALALAKRKADVAFEFFHKLHVPFYCFHDVDVSPEGASLKEYINNFAQMVDVLAGKQEESGVKLLWGTANCFTNPRYGAGAATNPDPEVFSWAATQVVTAMEATHKLGGENYVLWGGREGYETLLNTDLRQEREQLGRFMQMVVEHKHKIGFQGTLLIEPKPQEPTKHQYDYDAATVYGFLKQFGLEKEIKLNIEANHATLAGHSFHHEIATAIALGLFGSVDANRGDAQLGWDTDQFPNSVEENALVMYEILKAGGFTTGGLNFDAKVRRQSTDKYDLFYGHIGAMDTMALALKIAARMIEDGELDKRIAQRYSGWNSELGQQILKGQMSLADLAKYAQEHHLSPVHQSGRQEQLENLVNHYLFDK	4.53 ± 0.48				4.84 ± 0.15	8.63 ± 0.81	3.53		5.81 ± 0.47	11.6 ± 0.51	2.93 ± 0.26	2.75
MQDAAPRLTFTLRDEERLMMKIGVFVPIGNNGWLISTHAPQYMPTFELNKAIVQKAEHYHFDFALSMIKLRGFGGKTEFWDHNLESFTLMAGLAAVTSRIQIYATAATLTLPPAIVARMAATIDSISGGRFGVNLVTGWQKPEYEQMGIWPGDDYFSRRYDYLTEYVQVLRDLWGTGKSDFKGDFFTMNDCRVSPQPSVPMKVICAGQSDAGMAFSARYADFNFCFGKGVNTPTAFAPTAARMKQAAEQTGRDVGSYVLFMVIADETDDAARAKWEHYKAGADEEALSWLTEQSQKDTRSGTDTNVRQMADPTSAVNINMGTLVGSYASVARMLDEVASVPGAEGVLLTFDDFLSGIETFGERIQPLMQCRAHLPALTQEVA	5.26 ± 0.37	3.06 ± 0.12	0.661 ± 0.0067	0.481 ± 0.11			0.658 ± 0.16	0.664 ± 0.16				0.715 ± 0.26
MQEIYRFIDDAIEADRQRYTDIADQIWDHPETRFEEFWSAEHLASALESAGFTVTRNVGNIPNAFIASFGQGKPVIALLGEYDALAGLSQQAGCAQPTSVTPGENGHGCGHNLLGTAAFAAAIAVKKWLEQYGQGGTVRFYGCPGEEGGSGKTFMVREGVFDDVDAALTWHPEAFAGMFNTRTLANIQASWRFKGIAAHAANSPHLGRSALDAVTLMTTGTNFLNEHIIEKARVHYAITNSGGISPNVVQAQAEVLYLIRAPEMTDVQHIYDRVAKIAEGAALMTETTVECRFDKACSSYLPNRTLENAMYQALSHFGTPEWNSEELAFAKQIQATLTSNDRQNSLNNIAATGGENGKVFALRHRETVLANEVAPYAATDNVLAASTDVGDVSWKLPVAQCFSPCFAVGTPLHTWQLVSQGRTSIAHKGMLLAAKTMAATTVNLFLDSGLLQECQQEHQQVTDTQPYHCPIPKNVTPSPLK	5.29 ± 0.17											
MQENISVTDSYSTGNAAQAMLEKLLQIYDVKTLVAQLNGVGENHWSAAILKRALANDSAWHRLSEKEFAHLQTLLPKPPAHHPHYAFRFIDLFAGIGGIRRGFESIGGQCVFTSEWNKHAVRTYKANHYCDPATHHFNEDIRDITLSHKEGVSDEAAAEHIRQHIPEHDVLLAGFPCQPFSLAGVSKKNSLGRAHGFACDTQGTLFFDVVRIIDARRPAMFVLENVKNLKSHDQGKTFRIIMQTLDELGYDVADAEDNGPDDPKIIDGKHFLPQHRERIVLVGFRRDLNLKADFTLRDISECFPAQRVTLAQLLDPMVEAKYILTPVLWKYLYRYAKKHQARGNGFGYGMVYPNNPQSVTRTLSARYYKDGAEILIDRGWDMATGEKDFDDPLNQQHRPRRLTPRECARLMGFEAPGEAKFRIPVSDTQAYRQFGNSVVVPVFAAVAKLLEPKIKQAVALRQQEAQHGRRSR [P0AED9]	6.76 ± 1.5	5.15 ± 0.12	2.96 ± 0.39	2.66 ± 0.11	3.32 ± 0.18	6.06 ± 0.83	3.04 ± 0.39	3.94 ± 0.19	3.02 ± 0.45	5.98 ± 1	2.31 ± 0.072	3.09 ± 0.34
MQERIKACFTESIQTQIAAAEALPDAISRAAMTLVQSLLNGNKILCCGNGTSAANAQHFAASMINRFETERPSLPAIALNTDNVVLTAIANDRLHDEVYAKQVRALGHAGDVLLAISTRGNSRDIVKAVEAAVTRDMTIVALTGYDGGELAGLLGPQDVEIRIPSHRSARIQEMHMLTVNCLCDLIDNTLFPHQDD	5.68 ± 1.7	6.95 ± 0.57	5.12 ± 0.18	5.68 ± 1.4	5.56 ± 0.26	11.1 ± 0.025	4.54	7.55 ± 1	5.81 ± 0.52	13 ± 3.2	3.087 ± 0.0052	4.6 ± 0.094
MQFDYIIIGAGSAGNVLATRLTEDPNTSVLLLEAGGPDYRFDFRTQMPAALAFPLQGKRYNWAYETEPEPFMNNRRMECGRGKGLGGSSLINGMCYIRGNALDLDNWAQEPGLENWSYLDCLPYYRKAETRDMGENDYHGGDGPVSVTTSKPGVNPLFEAMIEAGVQAGYPRTDDLNGYQQEGFGPMDRTVTPQGRRASTARGYLDQAKSRPNLTIRTHAMTDHIIFDGKRAVGVEWLEGDSTIPTRATANKEVLLCAGAIASPQILQRSGVGNAELLAEFDIPLVHELPGVGENLQDHLEMYLQYECKEPVSLYPALQWWNQPKIGAEWLFGGTGVGASNHFEAGGFIRSREEFAWPNIQYHFLPVAINYNGSNAVKEHGFQCHVGSMRSPSRGHVRIKSRDPHQHPAILFNYMSHEQDWQEFRDAIRITREIMHQPALDQYRGREISPGVECQTDEQLDEFVRNHAETAFHPCGTCKMGYDEMSVVDGEGRVHGLEGLRVVDASIMPQIITGNLNATTIMIGEKIADMIRGQEALPRSTAGYFVANGMPVRAKK	5.76 ± 0.8					> 16	2.75			4.08		
MQFEKMITEGSNTASAEIDRVSTLEMCRIINDEDKTVPLAVERVLPDIAAAIDVIHAQVSGGGRLIYLGAGTSGRLGILDASECPPTYGVKPGLVVGLIAGGEYAIQHAVEGAEDSREGGVNDLKNINLTAQDVVVGIAASGRTPYVIAGLEYARQLGCRTVGISCNPGSAVSTTAEFAITPIVGAEVVTGSSRMKAGTAQKLVLNMLSTGLMIKSGKVFGNLMVDVVATNEKLHVRQVNIVKNATGCSAEQAEAALIACERNCKTAIVMVLKNLDAAEAKKRLDQHGGFIRQVLDKE	5.64 ± 0.068	4.82 ± 0.37	4.88 ± 0.37	4.08 ± 0.35	5.28 ± 0.059	8.41 ± 0.19	4.37 ± 0.25	8.74 ± 0.62	5.92 ± 1.1	9.65 ± 0.26	3.04 ± 0.084	5.96 ± 1.8

Source: the supplement of paper PMC11246515
